Laboratory results: patent US20240270846A1 (published 2024)

Molecular target: T1, CD3 epsilon homodimer protein (UniProt P07766 23-126)
T1 construct: Immobilized on Sensor chip CM4 by amine coupling; construct not described; also called CD3 (CD3 epsilon)
Test: SPR Biacore T200, CD3 epsilon homodimer on CM4 chip, antibody as analyte;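 further: Amine-coupled CD3 epsilon homodimer, run at 25 °C in HBS-EP+ buffer, ratio is bound amount of each single-residue H chain variant over that of the parent antibody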

T1 sequence (P07766 23-126): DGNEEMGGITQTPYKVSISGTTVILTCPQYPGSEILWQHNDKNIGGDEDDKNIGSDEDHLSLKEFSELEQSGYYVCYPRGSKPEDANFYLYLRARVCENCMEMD

ratio of amounts bound (Y/X vs CE115HA000) | Binder
0.89 | CE115HA000 K64Q one-arm antibody (antibody, human IgG1, kappa, L234A L235A, N297A, name in Kabat numbering, one-arm antibody (one Fab)) heavy: QVQLVESGGGVVQPGRSLRLSCAASGFTFSNAWMHWVRQAPGKGLEWVAQIKAKSNNYATYYAESVQGRFTISRDDSKNSLYLQMNSLKTEDTAVYYCRYVHYGAYYGVDAWGQGTTVTVSSASTKGPSVFPLAPSSKSTSGGTAALGCLVKDYFPEPVTVSWNSGALTSGVHTFPAVLQSSGLYSLSSVVTVPSSSLGTQTYICNVNHKPSNTKVDKKVEPKSCDKTHTCPPCPAPEAAGGPSVFLFPPKPKDTLMISRTPEVTCVVVDVSHEDPEVKFNWYVDGVEVHNAKTKPREEQYASTYRVVSVLTVLHQDWLNGKEYKCKVSNKALPAPIEKTISKAKGQPREPQVYTLPPSRCELTKNQVSLSCAVKGFYPSDIAVEWESNGQPENNYKTTPPVLDSDGSFFLVSKLTVDKSRWQQGNVFSCSVMHEALHNHYTQKSLSLSPDYKDDDDK EPKSSDKTHTCPPCPAPELLGGPSVFLFPPKPKDTLMISRTPEVTCVVVDVSHEDPEVKFNWYVDGVEVHNAKTKPREEQYNSTYRVVSVLTVLHQDWLNGKEYKCKVSNKALPAPIEKTISKAKGQPREPQVCTLPPSRDELTKNQVSLWCLVKGFYPSDIAVEWESNGQPENNYKTTPPVLDSDGSFFLYSKLTVDKSRWQQGNVFSCSVMHEALHNRYTQKSLSLSP light: DIVMTQSPLSLPVTPGEPASISCRSSQSLVHSNRNTYLHWYQQKPGQAPRLLIYKVSNRFSGVPDRFSGSGSGTDFTLKISRVEAEDVGVYYCGQGTQVPYTFGQGTKLEIKRTVAAPSVFIFPPSDEQLKSGTASVVCLLNNFYPREAKVQWKVDNALQSGNSQESVTEQDSKDSTYSLSSTLTLSKADYEKHKVYACEVTHQGLSSPVTKSFNRGEC
0.84 | CE115HA000 K64S one-arm antibody (antibody, human IgG1, kappa, L234A L235A, N297A, name in Kabat numbering, one-arm antibody (one Fab)) heavy: QVQLVESGGGVVQPGRSLRLSCAASGFTFSNAWMHWVRQAPGKGLEWVAQIKAKSNNYATYYAESVSGRFTISRDDSKNSLYLQMNSLKTEDTAVYYCRYVHYGAYYGVDAWGQGTTVTVSSASTKGPSVFPLAPSSKSTSGGTAALGCLVKDYFPEPVTVSWNSGALTSGVHTFPAVLQSSGLYSLSSVVTVPSSSLGTQTYICNVNHKPSNTKVDKKVEPKSCDKTHTCPPCPAPEAAGGPSVFLFPPKPKDTLMISRTPEVTCVVVDVSHEDPEVKFNWYVDGVEVHNAKTKPREEQYASTYRVVSVLTVLHQDWLNGKEYKCKVSNKALPAPIEKTISKAKGQPREPQVYTLPPSRCELTKNQVSLSCAVKGFYPSDIAVEWESNGQPENNYKTTPPVLDSDGSFFLVSKLTVDKSRWQQGNVFSCSVMHEALHNHYTQKSLSLSPDYKDDDDK EPKSSDKTHTCPPCPAPELLGGPSVFLFPPKPKDTLMISRTPEVTCVVVDVSHEDPEVKFNWYVDGVEVHNAKTKPREEQYNSTYRVVSVLTVLHQDWLNGKEYKCKVSNKALPAPIEKTISKAKGQPREPQVCTLPPSRDELTKNQVSLWCLVKGFYPSDIAVEWESNGQPENNYKTTPPVLDSDGSFFLYSKLTVDKSRWQQGNVFSCSVMHEALHNRYTQKSLSLSP light: DIVMTQSPLSLPVTPGEPASISCRSSQSLVHSNRNTYLHWYQQKPGQAPRLLIYKVSNRFSGVPDRFSGSGSGTDFTLKISRVEAEDVGVYYCGQGTQVPYTFGQGTKLEIKRTVAAPSVFIFPPSDEQLKSGTASVVCLLNNFYPREAKVQWKVDNALQSGNSQESVTEQDSKDSTYSLSSTLTLSKADYEKHKVYACEVTHQGLSSPVTKSFNRGEC
